Data set [1] concerns the target Prototype foamy virus integrase (PFV IN) wild type, tetrameric intasome (Prototype foamy virus) (UniProt P14350). Conditions: smTIRF FRET, stalling at gap; 110 mM NaCl, 2 mM MgSO4, 24 C.
For data set [2] the target is unchanged. Conditions: smTIRF lifetime at physiological buffer; searches 1.6 kb; integration rare.

60 bp target DNA with 1 or 2 base gap displayed a binding (% of search events with integration) in data set [1] of 20.
In the case of 23 kb naked linear DNA, in data set [2], the binding was found to be 2.1 s.

The record behind these values is patent publication US20240425828.
